Experimental data published in patent US20060094659A1.
Blank lines part the entries; values can stand above or below the molecule they belong to.

Assays:
[1] = biological target: CD44 on the surface of U937-C5aR cells and human neutrophils (human) (UniProt P16070); test: Biacore SPR, U937-C5aR cells pretreated with 25 µg/ml anti-CD44, DBP immobilized
[2] = biological target: CD44 on the surface of U937-C5aR cells and human neutrophils (human) (UniProt P16070); test: AlexaFluor 488-labeled DBP binding to U937-C5aR cells pretreated with antibody, fluorescence
[3] = biological target: annexin A2 on the surface of U937-C5aR cells and human neutrophils (human) (UniProt P07355); test: as above
[4] = biological target: cell surface DBP binding site complex; test: Biacore SPR, U937-C5aR cells pretreated with 0.5 µM peptide 2, DBP immobilized (competitor: immobilized DBP)

annexin A2 on the surface of U937-C5aR cells and human neutrophils (human), sequence (P07355 2-339): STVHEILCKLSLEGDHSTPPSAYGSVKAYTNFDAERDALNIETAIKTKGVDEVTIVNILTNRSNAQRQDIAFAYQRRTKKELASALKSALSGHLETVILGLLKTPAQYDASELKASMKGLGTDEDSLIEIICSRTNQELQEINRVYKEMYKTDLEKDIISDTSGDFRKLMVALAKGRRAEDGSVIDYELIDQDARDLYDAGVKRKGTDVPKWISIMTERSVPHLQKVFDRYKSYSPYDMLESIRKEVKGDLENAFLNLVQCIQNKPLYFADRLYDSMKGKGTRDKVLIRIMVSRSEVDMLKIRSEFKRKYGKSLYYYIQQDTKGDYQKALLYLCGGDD

percent inhibition of cell binding to immobilized DBP [1]: 50% | percent blocking of DBP binding to cells [2]: 50%
Molecule: affinity-purified goat polyclonal anti-CD44 (N-18), Santa Cruz Biotechnology (antibody)

percent blocking of DBP binding to cells [3]: 50%
Molecule: affinity-purified goat polyclonal anti-annexin A2 (C-16), Santa Cruz Biotechnology (antibody)

percent inhibition of cell binding to immobilized DBP [4]: 50%
Molecule: NYGQAPLSLLVSYTKSYLSMVGS [DBP peptide 2 (residues 150-172)]
